Test results as given in the DeepSol protein solubility set.

test: soluble on expression in E. coli; label from the status in PepcDB or PDB records

| Sequence | soluble on expression in E. coli |
| --- | --- |
| MYTTQMDAAKKGIITDEMRIVAEKEGVHVEKLRELVASGKVVIPANKNHKKLEPQGIGEGLRTKINVNIGISKDCCNFEMELEKAKKAIELKAEAIMDLSSYGKTREFRRKLVEMSPVMIGTVPVYDAVGFYEKDLKDISAEEFFEVVEKHAEDGVDFMTIHAGINRETAKRFKENGRLTNIVSRGGSLIFAWMELTGNENPFYEQYDRLLQIFEKYDVTISLGDALRPGSINDSTDASQIQELIVLGELTKRAWEKNVQVMIEGPGHMAINEIAPNMVLEKKLCHGAPFYVLGPIVTDIAPGYDHITSAIGGAIAAANGADFLCYVTPAEHLRLPDIDDMKEGIIAARIAAHAADIAKGIKGAREWDYQMSEARRNLDWNRMFELAIDREKAERYRKSSMPEDEDTCTMCGRMCAVKNTNKALKGEKINIL | not soluble |
| AHHHHHHGSQHPRKIYFVDTSFLTFLSVKFSKNMERLMENTVFIELLRRGKGVNYALGKNWGIDFVLLIKVSYDVSDEGTLRCEVNALRKVSREFDFKNALLITWNSKRRIEREEL | soluble |
| GMANLLSTCTSESGNIQHISPQNAGWEYVGFDVWQLKAGESITLPSDERERCLVLVAGLASVKAADSFFYRIGQRMSPFERIPAYSVYLPHHTEAKVTAETDLELAVCSAPGFGELPVRLISPQEVGVEHRGKGRNQRLVHNILPDSQLADSLLVVEVYTNAGATSSWPAHKHDTAVEGQETYLEETYYHRFNPPQGFCLQRVYTDDRSLDECMAVYNRDVVKVPKGYHPVATIAGYDNYYLNVMAGPLRKWRFTWEENHAWINSPDYPR | soluble |
| MSLSADFSQPLADRLRPRTLDEYIGQLHLIEPGRPLYESIRRGRLHSMIFWGPPGTGKTTLARLVARHADAEFLPVSAVLSGVKEIREALARAVQFKAAGRRAILFVDEVHRFNKSQQDAFLAHVEDGTVSFIGATTENPSFEVNSALLSRARVYVLKALTEADLLGVIDRALSDAERGLGGRGLNMSDPVRMAYVRAADGDARRLLNLLEITADLLDAGQTVVSEEVARQVLASGTTRRFDKQGEEFYNQISALHKSVRGSSPDAALYWLCRMLDGGCDPLYLARRLVRIASEDIGNADPKALELCLNAWNAQERLGSPEGELALAQAVVYLAVAPKSNAVYEAYKAARADAARSGSLPVPLHLRNAPTGLMKGLDYGKGYRYAHDYPDAYVPGENYFPEGLERREYYRPVNRGMEIKIAEKLERLKALDKEADEGHHHHHH | not soluble |
| GMMNTTQEGRQRLAERLADTVAQALEADLAKRERALLVVSGGSTPKPFFTSLAAKALPWARVDVTLADERWVTADDADSNARLVRETLLVGPAAEACFHPLTTDDDTPEAGVETVAERLESLPWPASAVILGMGGDGHTASLFPDSEQLATALETTSAAVVVHAPSVPQARITLSASRLADAGLHVLHITGNDKRRVLAEALAGDDVRQLPIRAFLSQPIATYWAP | soluble |
| GRSLGKLGMRYGKKRVHIAKRNLELAFPEKTPEEVQHIVEENFKNTGMALIETGITWFWPTWRFKTLIVEKDIHALKEKGAEGK | not soluble |
| MSLEYLLQAAGIPRSTFFYHQKRLSKPDKHAELKDAIRASFERNKHRYGYRRVLLDLRNQGWVVNHKLVYKLMCEMGLRAKIRQRRPYVSYTGTISHIADNKLDRKFTPDQPNTVFVSDVTEFRVAGRKVYLSPVMDLFDRSIVAHTVATSPSTALTTDSLSKAIAACEPEPGWMIHTDQGFQYQHASWRDLIGDNGGVQSMSRKANCYDNAVMENFFGHLKTEMYHGEVFDTVAEFNQVIDEYIQWYNTERIQQRLKGLTPMQYRNQTLEALTAEGHHHHHH | not soluble |
| MCRYARSYLLHAFDYTLFVKARLNMAFMISMPAIELAGLTIQVCQFDPQQFDEDQQHYLAPPTYHSLHKAVVKRQAEFVAGRKLAQQALKQIGQGYDRPIAIGTHREPLWPAGITGSIAHCDGWAVCTVLKAEHLSLGIDIEHRLAHQTASEVQAIIGTAQEWALLAQQFDLASAVTLLFSAKESLFKALFPQVHLYLDFCDAQLSSLEPNKMSFTLTRVPNAAQQSCEVYFRWFEQQRVLTVSVLPMLGKIEYHVPTLPT | not soluble |
| MIVGRDGVGVVEHAEQGPRIAVAVVTMGNRPAEVDALLASVAKQDLPPARIVIVGNGCPLPEFARRLDLPGEVTGIEVDENLGCPGGRNVALAKLREFGDVDVVVELDDDGLLVDADVLRRVRDLYAADPRLGIVGFRIADENGETQRRHVPRVGKSDPLRGGPVTGFLGGGHALSMAMLARTGDWPAEFFFAHEETDLAWRATDAGWTILYAPELLLQHPKTSPARHAIYHRVTARNRVWLARRRLPLPLIPVHLGIWIAVTLVRTRSAGGLRAWFGGFMEGVRTSGGERRPMRWRTVWRLTRLGRPPVILEHHHHHH | not soluble |
| MNTEVIHYIIRFLIGDESGNDQLLSRIGYTSKQSEMSRYSIVIRASNFFDSDIYGTDKAFPLLPLKEWEGVPLLFGEPTEELLEESDTLVLNADIVASTYFLISRYEEMYRRKLRDIHGRFPGRESLPFKAGFLQRPVVDEYGAILRTKIRQMGWPVKDPVPHFSMVNLTHDVDEPFEYRGWRSFARALIKERKSPFKAFRLAYANPASDRFFTFPRFVDWDKILRSKMPDCCRIIFFFKAPGKAPQDAPNYSLRKPLYQSLRSLVKNNGIVIGLHSNYSAGLNPELIGKQRKRLMSDTDMAVDCNRHHYLAAREPEDMQALISAGIRHDYTMGYADVAGFRLGTSRPVRFIMPSTRRLTELILHPLTLMDCTLHRQEYMGLDEATAIELCKELLMHTFIHGGEATLLWHNEYLSRDIHPWHARLYREVLRLIETMEEKQEEESFDYETAIDQ | not soluble |
| MERIETIPTDKEHLSQDEVIRLASTPCSAPALKRAFLFSCLTALRKSDIKKLTWEEIQPYGSDGVMYVTTRMQKTKDIVHNPISEEALELIGYSPDKRGKVFPDFKDSMTQAPLKNWLKDAGITKHISYHCSRHSFACLQLDAGTSIAVVQRYLGHKNVATTEVYAKISDAQKRASVGLEHHHHHH | soluble |
| MDGMTPNRLLDLAIQSLLSNESAAIQALEDIPRELFVPLFIAAFKGGHKNTLSAMVKVWPFYCLHMGSLRILEPQHELLKAIIENLPVHPAQTSAFWGPKLRILDLRQDTNCRITCPEVSTKSPSCFHSCIYSDSSITKIERQLCFINSGCKTLLPRPVELILDLFLDGSLIEKDFLILLMHKIEESLGFLHVCCRDLQIDKPCKCKCTLKFLDLQCVDQLSVDRGSLSDITSILGQMGHLESLTLSNVTFRSLRGKVFKIFLSHLQRMENLKELSFSSFRLKNHLDRVLRVLPPDLDFLYLPFCGLSYRDIKFMSQSPHVTHLKLLNLSNNLMYWDDFGPFHSVLSNLSGTLQHLEINHCHISDSAISALIPALIRCTHLRVLGFACNPITMPMLVNIMHHLTPMMELKYVIYPIPVHCYERWHFHGSLDRGKLAIKVLGLPVQAKYPRNGWSKAISSSDENIPKAQTDTIPTCSWSWSLSRLQSAVQPPRDNLGRWKDTYAERAGNAVHGAV | not soluble |
| MSLNESEEKNSNSTYSFFFKNLSVTGFYEENCLFMTVKELFDNSIDALCNNKGDENIDEEGQGTQEKKIEIEIKEYGINSSFYEIICRDNGEGIEVKDLEKISEMFLTSKEKCITSGKFGIGLKTILLYSFKTAYGFLHIKIKVKKNKIWDFILVLDKNLNHTFVQNFKEYIDDKWEWTIEISVILKINNNYISDKKIHSYIKLFLLWKKNITVKYIHNPNGEQSIYTYSSHSDTSEENILSMLANNSINMIFKKDFLTSYNYDVNMYVNVRKSEKIIPYEHGHNIGFLFLIRYVNSMPLLRTSSSDCSITVDFRNFLKYYGPQFGIELPTIESRDEMILEELALPSCFDDLNKVANIFPVKRSEEGHHHHHH | soluble |
| MGSDKIHHHHHHMNTDLTLVIMAAGLGSRFGGDKQLASLGPSGEPMLVLSILSAIRSGFQRAVLVIRPELEAELTGILTQFLPANFEYHFCYQSLSDLPQDAKLADLSHRLKPWGTAHALWCARDWVKGPMAVINADDFYGDSAFASLAKGLTARPNDWMMVAYPIELTLSEHGGVNRGLCQVAQGQLRSVAEWLNIQAQDDGFVGEGPNGLAKLPLQSLVSMTCWGFSPSIFNVIKQQLTAFIEQQGQLPKSECYLPAVVQAAIEQGVPVYVDVASEPWLGVTYPQDTVWVKQKLMELLGDKTH | not soluble |
| MSCDGGKPAPAKLGDEQLAELREIFRSFDQNKDGSLTELELGSLLRSLGLKPSQDQLDTLIQKADRNNNGLVEFSEFVALVEPDLVKCPYTDDQLKAIFRMFDRDGNGYITAAELAHSMAKLGHALTAEELTGMIKEADRDGDGCIDFQEFVQAITSAAFDNAWG | soluble |
| MSFALLMASGGLDSTTVAYWLTERGVQFIPVFFDYGQHCVETEWETLKEVLPASAAHPERNDISDLFRGSKSRLITEADLWNEEVKDEDLYVPYRTLLFYSAAAARAQTLGAFEVYTGFINSNRAKEIDCTAEFMNKLDALTDSVGPVRFLSPFRFWSKSEVAKESIRLGVPIGRTFSCQAASLMPCGACPNCVERLAALRETGLLA | not soluble |
| MGSDKIHHHHHHMTNTETIQSLIDSGEGYNVEFKVRVPSKVRELTEEICAFANADGGYLLIGVDDNGQIIGTGLENDKRSAIQGSISEISPALHCDMYAVNIEDKTVWVIDVPSGKDKPYIFSGSIFVREGANSQKLRTVEEMRSFFQECNKIFFDAIPCSWFNIYTDADEQAIKDFRTEAKLSPSTANKQIFENLELFTDNGVAKNGTAMFFGKQPERKFPHAVTRCVLFKGTTKVYIIDDKTFGGPLYQQYLQAMAWLESKLQVAYKIEGAGPREEIWEIPLTVFKEAIINALSHRDYYEQGATITIEMFDDRVEVSNPGGLLPIVAKDFGHKSMTRNPLIFGLFTRMHLVERVASGIPRMQEAMKEANLPEPDFHTDGMFTVIFKRGISIKNDTVNDTVNDTVNDTVNSKEKEVLKIIQKYPGLNSSKIAELIKKSIPTAKRHLNSLVKSGLIEFRGAQKTGGYYIINQQ | not soluble |
| MLRFYAMKQITEPGTYEIRGEVAEGDFSWDATNFAGFFYDVNDDVSTESLTVTGLNGGNVIPEGGLVYETTIQMVDYEYSKPSVGWDQFPVLGFFAEEYIPINADKADKLAKLVLDSDDKYTIRTGEQLDLGEGYAIEAKQVDVDGEKVWLEFTKDGEFVDDEIISVVSGSDNTWEVELDDIQDEDDVVVLRVHVNQVFQGAVDSIAQIEGIWLIDYANAMKIESDDEFGDLDNVKINGATLTITNEDTFTLTRDDEVEIGQGMFFKVADTAASDLRYYPFVEKTIDGEVVDDDEDDDNVTEPVDNDTEVEEPTEEPTEGPTEELEHHHHHH | not soluble |
| MSKMLYRVELIITNKEGVRDPEGETIQRYVVSRFSDKIIETRAGKYLVFRVNSSSQQEATELVKKLADEMRLYNPIVHKIEIRANRIEDSSN | soluble |
| MPRIEDRLINRTPRNFTIIGNSPNSMSRGKRPHTTPIEVHLLREGIIESQHWAEATVYDDRGRVLMLAGDSTSNAFIRSSLKPFQALAVTSTGTMERYGLTDKDLAIMCGSHQGTIEQARQVFNILWRADIEPQALQCPIPAGQESPLYHGCSGKHAGMLAVCQQQDWPLHSYLQQNSPIQKLILSKVADLLGMPGAELIAAHDDCGAPTYTMELGQIAHLYALLASGQQLGLERVARAMTYYPYFVAGEGCFDTELMQQMEGELVSKSGAEGVQCVGRVGEGLGLAIKVKDGSKRAKYAVAIHLLQQMGWIPPQVAETLSEKFVRLGKYKRLEVIGELAMLLEHHHHHH | not soluble |
| MRILVNLILFSLIPLAFSNENSSSYLIARPLIFETQLKNINDNVNLHCTSWRFAAETNNLAPWKTIPAECADYVKDYLMGEGYVVDVERVSEEAKVYASSFESNGDGKDIWIFDIDETLLSNLPYYMEHGCGLEVFDHSKFDMWVEKGIAPAIAPSLKLYQKVIHLGYKVILLTGRRENHRVITVENLRNAGFHNWDKLILRSLDDRNKTATMYKSEKREEMVKEGYRIRGNSGDQWSDLLGSAMSERSFKLPNPMYYIP | soluble |
